According to US20220313819A1 (ARCH ONCOLOGY, published 2022):
Substitutions are numbered along the chain they refer to. Names may count otherwise. Where two headings read alike, the source gives them in different places.

B1: VLX8 IgG4 PE (xi) (antibody)
heavy: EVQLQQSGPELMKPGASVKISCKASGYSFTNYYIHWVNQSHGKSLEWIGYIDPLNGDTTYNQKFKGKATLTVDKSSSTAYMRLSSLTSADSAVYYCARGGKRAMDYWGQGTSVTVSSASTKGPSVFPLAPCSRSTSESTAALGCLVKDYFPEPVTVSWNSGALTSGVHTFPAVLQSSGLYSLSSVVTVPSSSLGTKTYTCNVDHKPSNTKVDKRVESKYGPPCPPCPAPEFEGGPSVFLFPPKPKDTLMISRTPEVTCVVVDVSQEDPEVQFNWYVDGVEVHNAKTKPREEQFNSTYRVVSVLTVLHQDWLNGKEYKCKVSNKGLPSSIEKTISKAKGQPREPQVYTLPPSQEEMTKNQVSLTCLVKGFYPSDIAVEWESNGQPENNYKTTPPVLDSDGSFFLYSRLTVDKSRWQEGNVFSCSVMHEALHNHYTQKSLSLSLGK
light: DIQMTQTTSSLSASLGDRVTISCRASQDISNYLNWYQQKPDGTVKLLIYYTSRLYSGVPSRFSGSGSGTDYSLTISNLEQEDIATYFCQQGNTLPWTFGGGTKLEIKRTVAAPSVFIFPPSDEQLKSGTASVVCLLNNFYPREAKVQWKVDNALQSGNSQESVTEQDSKDSTYSLSSTLTLSKADYEKHKVYACEVTHQGLSSPVTKSFNRGEC
notes: murine-human chimera; tied through the names Vx8mur-H03/Vx8murL03 full length chains, not by an explicit VLX8 statement; also called VLX8 IgG4PE chimera
B2: VLX8hum_08 IgG2 (antibody, V domains shown)
VH: EVQLVQSGAEVKKPGESLKISCKGSGYSFTNYYIHWVRQMPGKGLEWMGYIDPLNGDTTYNQKFKGQVTISADKSISTAYLQWSSLKASDTAMYYCARGGKRAMDYWGQGTLVTVSS
VL: DIQMTQSPSSLSASVGDRVTITCRASQSISNYLNWYQQKPGKAPKLLIYYTSRLYSGVPSRFSGSGSGTDFTLTISSLQPEDFATYYCQQGNTLPWTFGQGTKVEIKR
B3: VLX9 IgG2 (xi) (antibody)
heavy: QVQLQQFGAELAKPGASVQMSCKASGYTFTNYWIHWVKQRPGQGLEWIGYTDPRTDYTEYNQKFKDKATLAADRSSSTAYMRLSSLTSEDSAVYYCAGGGRVGLGYWGHGSSVTVSSASTKGPSVFPLAPCSRSTSESTAALGCLVKDYFPEPVTVSWNSGALTSGVHTFPAVLQSSGLYSLSSVVTVPSSNFGTQTYTCNVDHKPSNTKVDKTVERKCCVECPPCPAPPVAGPSVFLFPPKPKDTLMISRTPEVTCVVVDVSHEDPEVQFNWYVDGVEVHNAKTKPREEQFNSTFRVVSVLTVVHQDWLNGKEYKCKVSNKGLPAPIEKTISKTKGQPREPQVYTLPPSREEMTKNQVSLTCLVKGFYPSDIAVEWESNGQPENNYKTTPPMLDSDGSFFLYSKLTVDKSRWQQGNVFSCSVMHEALHNHYTQKSLSLSPGK
light: DVFMTQTPLSLPVSLGDQASISCRSSQNIVQSNGNTYLEWYLQKPGQSPKLLIYKVFHRFSGVPDRFSGSGSGTDFTLKISRVEAEDLGVYYCFQGSHVPWTFGGGTKVEIKRTVAAPSVFIFPPSDEQLKSGTASVVCLLNNFYPREAKVQWKVDNALQSGNSQESVTEQDSKDSTYSLSSTLTLSKADYEKHKVYACEVTHQGLSSPVTKSFNRGEC
notes: murine-human chimera; also called VLX9 IgG2 chimera
B4: VLX4 IgG1 (xi) (antibody)
heavy: not shown
light: DVLMTQTPLSLPVNLGDQASISCRSRQSIVHTNGNTYLGWFLQKPGQSPKLLIYKVSNRFSGVPDRFSGSGSGTDFTLTISRVEAEDLGVYYCFQGSHVPYTFGGGTKLEIKRTVAAPSVFIFPPSDEQLKSGTASVVCLLNNFYPREAKVQWKVDNALQSGNSQESVTEQDSKDSTYSLSSTLTLSKADYEKHKVYACEVTHQGLSSPVTKSFNRGEC
notes: murine-human chimera, human IgG1, human kappa
B5: VLX4 IgG1 N297Q (xi) (antibody)
heavy: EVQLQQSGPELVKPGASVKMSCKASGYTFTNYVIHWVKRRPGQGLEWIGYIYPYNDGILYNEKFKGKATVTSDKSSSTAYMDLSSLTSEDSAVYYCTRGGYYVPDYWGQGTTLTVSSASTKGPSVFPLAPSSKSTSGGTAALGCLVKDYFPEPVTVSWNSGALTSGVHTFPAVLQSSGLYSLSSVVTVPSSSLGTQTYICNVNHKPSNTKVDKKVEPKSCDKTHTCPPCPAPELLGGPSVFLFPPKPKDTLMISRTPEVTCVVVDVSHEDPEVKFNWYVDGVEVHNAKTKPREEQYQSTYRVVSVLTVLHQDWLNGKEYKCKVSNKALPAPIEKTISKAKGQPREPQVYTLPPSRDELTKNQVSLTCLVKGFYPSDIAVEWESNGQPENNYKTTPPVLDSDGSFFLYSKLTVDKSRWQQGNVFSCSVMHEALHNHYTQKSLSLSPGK
light: B4 light
notes: murine-human chimera, human IgG1-N297Q, human kappa
B6: VLX8 IgG1 N297Q (xi) (antibody)
heavy: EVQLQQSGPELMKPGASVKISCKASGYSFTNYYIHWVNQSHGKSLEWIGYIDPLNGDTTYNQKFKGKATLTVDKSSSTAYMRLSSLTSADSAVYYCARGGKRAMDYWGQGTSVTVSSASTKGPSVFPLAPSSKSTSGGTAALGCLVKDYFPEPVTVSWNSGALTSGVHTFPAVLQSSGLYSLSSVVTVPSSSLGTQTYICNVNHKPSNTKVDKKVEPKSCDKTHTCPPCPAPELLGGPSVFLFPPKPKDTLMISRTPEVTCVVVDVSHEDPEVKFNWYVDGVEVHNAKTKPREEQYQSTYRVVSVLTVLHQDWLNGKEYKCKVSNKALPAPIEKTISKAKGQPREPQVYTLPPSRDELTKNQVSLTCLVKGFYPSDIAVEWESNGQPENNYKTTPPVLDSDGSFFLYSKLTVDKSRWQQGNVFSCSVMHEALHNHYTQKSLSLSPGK
light: B1 light
notes: murine-human chimera
B7: VLX9 IgG1 (xi) (antibody)
heavy: not shown
light: B3 light
notes: murine-human chimera
B8: VLX9 IgG1 N297Q (xi) (antibody)
heavy: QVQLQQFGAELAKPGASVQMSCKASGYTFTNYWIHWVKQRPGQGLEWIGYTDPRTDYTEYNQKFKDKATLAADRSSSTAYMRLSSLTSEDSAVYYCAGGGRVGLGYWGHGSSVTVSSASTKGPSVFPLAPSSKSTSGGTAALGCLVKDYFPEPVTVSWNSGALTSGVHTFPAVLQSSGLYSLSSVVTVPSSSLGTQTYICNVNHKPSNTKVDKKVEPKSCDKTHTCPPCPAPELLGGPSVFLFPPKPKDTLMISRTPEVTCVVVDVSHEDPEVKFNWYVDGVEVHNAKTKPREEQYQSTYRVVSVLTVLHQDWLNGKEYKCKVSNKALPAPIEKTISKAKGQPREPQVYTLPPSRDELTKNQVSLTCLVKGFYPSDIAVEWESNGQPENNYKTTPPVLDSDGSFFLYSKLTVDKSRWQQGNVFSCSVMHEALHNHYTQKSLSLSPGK
light: B3 light
notes: murine-human chimera
B9: VLX9 IgG (murine) (antibody, V domains shown)
VH: QVQLQQFGAELAKPGASVQMSCKASGYTFTNYWIHWVKQRPGQGLEWIGYTDPRTDYTEYNQKFKDKATLAADRSSSTAYMRLSSLTSEDSAVYYCAGGGRVGLGYWGHGSSVTVSS
VL: DVFMTQTPLSLPVSLGDQASISCRSSQNIVQSNGNTYLEWYLQKPGQSPKLLIYKVFHRFSGVPDRFSGSGSGTDFTLKISRVEAEDLGVYYCFQGSHVPWTFGGGTKVEIK
notes: murine IgG; tied through the names Vx9murH04/Vx9murL04; also called murine VLX9 antibody
B10: VLX9 IgG4 PE (xi) (antibody)
heavy: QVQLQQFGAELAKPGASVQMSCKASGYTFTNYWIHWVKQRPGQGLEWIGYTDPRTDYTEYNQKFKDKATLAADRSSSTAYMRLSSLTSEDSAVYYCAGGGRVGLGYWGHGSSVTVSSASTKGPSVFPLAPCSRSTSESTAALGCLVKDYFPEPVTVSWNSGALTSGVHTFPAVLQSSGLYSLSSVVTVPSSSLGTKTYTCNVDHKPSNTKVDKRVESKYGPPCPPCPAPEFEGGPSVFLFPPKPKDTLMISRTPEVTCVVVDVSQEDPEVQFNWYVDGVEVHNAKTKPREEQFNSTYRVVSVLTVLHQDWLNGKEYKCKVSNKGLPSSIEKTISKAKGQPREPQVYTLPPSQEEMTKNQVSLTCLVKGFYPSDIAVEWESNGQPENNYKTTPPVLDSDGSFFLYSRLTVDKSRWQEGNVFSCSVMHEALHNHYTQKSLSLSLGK
light: B3 light
notes: murine-human chimera
B11: VLX8hum_07 IgG2 (antibody, V domains shown)
VH: QVQLVQSGAEVKKPGSSVKVSCKASGYSFTNYYIHWVRQAPGQGLEWMGYIDPLNGDTTYNQKFKGRVTITADESTSTAYMELSSLRSEDTAVYYCARGGKRAMDYWGQGTLVTVSS
VL: B2 VL
B12: VLX8hum_06 IgG2 (antibody, V domains shown)
VH: B11 VH with S16A, I70M, A72R, E74T, A79V
VL: B2 VL
B13: VLX8hum_09 IgG2 (antibody, V domains shown)
VH: B11 VH with N61A, K65Q
VL: B2 VL

Columns and labels:
human CD47 [1] = molecular target: T1, human CD47 (human, UniProt Q08722 19-292); assay: flow cytometry, human RBCs
T1 construct: also called hCD47; CD47 on OV10 hCD47 cells, human RBCs, Jurkat cells and normal human cells
Method: (§1) Binding activities of chimeric and humanized VLX4, VLX8, and VLX9 mAbs to human CD47 on hRBCs were also determined using flow cytometry.

human CD47 [2] = molecular target: T1, human CD47; assay: cell ELISA, OV10 hCD47 cells
Method: OV10 hCD47 cells were grown in IMDM medium containing 10% heat inactivated fetal bovine serum (BioWest; S01520). […] Cells were washed, various concentrations of purified antibodies added in IMDM and incubated at 37° C. for 1 hr in […]. Cells were then washed with media and incubated for an additional hour at 37° C. with HRP labelled secondary anti-human antibody (Promega) diluted 1/2500 in media. Cells were washed three times with PBS, and the peroxidase substrate 3,3′, 5,5′-tetramethylbenzidine was added (Sigma; Catalog #T4444). […] The apparent binding affinities of these clones to human OV10 hCD47 cells was determined by non-linear fit (Prism GraphPad software).

human CD47 [3] = molecular target: T1, human CD47; assay: flow cytometry on freshly isolated human RBCs, FITC-labelled donkey anti-human antibody, MFI
Method: FIG. 4A. Binding of VLX8 Humanized mAbs to Human RBCs. […] RBCs were incubated for 1 hr at 37° C. with various concentrations of VLX8 mAbs, washed and incubated for 1 hr with FITC-labeled donkey anti-human antibody. Cells were washed and antibody binding measured using flow cytometry.
as §1

human CD47 [4] = molecular target: T1, human CD47; assay: as above; remark: listed apart in the source
Method: FIG. 4B. Binding of VLX8 Humanized mAbs to Human RBCs. […] RBCs were incubated for 1 hr at 37° C. with various concentrations of VLX8 mAbs, washed and incubated for 1 hr with FITC-labeled donkey anti-human antibody. Cells were washed and antibody binding measured using flow cytometry.
as §1

[5] = molecular target: T2, recombinant human His-CD47 (human, UniProt Q08722 19-139); assay: ELISA, adsorbed His-CD47, pH 6
T2 construct: bought reagent; also called His-tagged human CD47 (Acro Biosystems); not shown: His tag
Method: (§2) Binding by soluble anti-CD47 mAbs to immobilized recombinant human CD47 and to human CD47 expressed on cells was measured in vitro. For the in vitro binding to recombinant CD47, His-CD47 (AcroBiosystems) was adsorbed to high-binding microtiter plates overnight at 4° C. The wells were washed and varying concentrations of anti-CD47 mAbs were added to the wells in buffers with a of either pH 6 or pH 8 for 1 hour. The wells were washed and then incubated with HRP-labelled secondary antibody for 1 hour at pH 6 or pH 8 followed by addition of peroxidase substrate. The apparent affinities were calculated using non-linear fit model (Graphpad Prism).

[6] = molecular target: T2, recombinant human His-CD47; assay: ELISA, adsorbed His-CD47, pH 8
Method: as §2

human CD47 [7] = molecular target: T1, human CD47; assay: flow cytometry on freshly isolated human RBCs, FITC-labelled donkey anti-human antibody, MFI; remark: listed apart in the source
Method: FIG. 7. Binding of VLX9 Humanized mAbs to Human RBCs. […] RBCs were incubated for 60 minutes at 37° C. with various concentrations of VLX9 mAbs, washed and incubated for 1 hr with FITC-labelled donkey anti-human antibody. Cells were washed and antibody binding measured using flow cytometry.
as §1

Row | Binder | Kd (human CD47 [1]) [nM] | Kd (human CD47 [2]) [nM] | EC50 (read off the curve) (human CD47 [3]) [nM] | EC50 (read off the curve) (human CD47 [4]) [nM] | Kd [5] [nM] | Kd [6] [nM] | EC50 (read off the curve) (human CD47 [7]) [nM]
1 | B1 | 0.077 | 0.056 | ~0.2 |  |  |  | 
2 | B2 | 0.82 | 0.464 |  | ~0.7 |  |  | 
3 | B3 | 0.742 | 0.88 |  |  | 0.13 | 0.137 | ~0.6
4 | B4 | 0.104 | 0.315 |  |  |  |  | 
5 | B5 | 0.092 | 0.258 |  |  |  |  | 
6 | B6 | 0.091 | 0.042 |  |  |  |  | 
7 | B7 | 0.381 | 0.28 |  |  |  |  | 
8 | B8 | 0.19 | 0.275 |  |  | 0.099 | 0.135 | 
9 | B9 |  |  |  |  | 0.091 | 0.076 | 
10 | B10 | 0.126 | 0.293 |  |  | 0.133 | 0.16 | 
11 | B11 | 0.671 | 0.46 |  |  |  |  | 
12 | B12 | 0.246 | 0.403 |  |  |  |  | 
13 | B13 | 1.74 | 0.68 |  |  |  |  | 
